Measurements from patent US12251377B2, “Anticoagulant compositions and uses thereof” (University of Rochester, priority 2019, dated 2025).

B1: Idarucizumab: anti-dabigatran antibody, reversal agent (antibody, chains of the INN, looked up, V domains shown)
VH: QVQLQESGPGLVKPSETLSLTCTVSGFSLTSYIVDWIRQPPGKGLEWIGVIWAGGSTGYNSALRSRVSITKDTSKNQFSLKLSSVTAADTAVYYCASAAYYSYYNYDGFAYWGQGTLVTVSS
VL: DVVMTQSPLSLPVTLGQPASISCKSSQSLLYTDGKTYLYWFLQRPGQSPRRLIYLVSKLDSGVPDRFSGSGSGTDFTLKISRVEAEDVGVYYCLQSTHFPHTFGGGTKVEIK
modifications: Fab
notes: anti-dabigatran antibody, reversal agent

How the values were obtained:
[1] = tested on: coagulation of human blood; test: Cardiopulmonary bypass circuit simulation (arterio-venous loop); type: biochemical; settings: whole duration of the bypass circuit experiment, 37° C.
Experimental: (§1) In the examples below, studies were carried out to examine effects of dabigatran on coagulation of human blood. The studies were approved by the Institutional Review Board (University of Rochester RSRB, Rochester, NY) and informed consent was obtained from all subjects. Six healthy non-pregnant donors between 18-70 years old were recruited for the study. Subjects were excluded from the recent infections, disorders of immune system, hematological disorders including prior history of clotting issues, malignancies. Current medications and herbal supplements were recorded. Standard phlebotomy procedures performed by trained personal were used to collect no more than 250 ml of whole blood in two months. The collected blood was anticoagulated with 0.109 M Na citrate and tested within four hours. Dabigatran was purchased from CLEARSYNTH (Ontario, Canada). The study was initiated in three steps: Effect of high-dose Dabigatran on coagulation of human blood in-vitro; Evaluation of the anticoagulant effect of Dabigatran in the Chandler Loop System; and Anticoagulation effect of Dabigatran in the Cardiopulmonary bypass circuit simulation. […]

[2] = cited from earlier work
[3] = tested on: coagulation of human blood; test: Thromboelastography, TEG 5000 rapid TEG test, clotting/reactive time (R); type: biochemical; settings: human blood in vitro
Experimental: In the examples below, studies were carried out to examine effects of dabigatran on coagulation of human blood. The studies were approved by the Institutional Review Board (University of Rochester RSRB, Rochester, NY) and informed consent was obtained from all subjects. Six healthy non-pregnant donors between 18-70 years old were recruited for the study. Subjects were excluded from the recent infections, disorders of immune system, hematological disorders including prior history of clotting issues, malignancies. Current medications and herbal supplements were recorded. Standard phlebotomy procedures performed by trained personal were used to collect no more than 250 ml of whole blood in two months. […]
Methods: Dabigatran (CLEARSYNTH, Catalog No. CS-O-03403; CAS number 211914-51-1) was initially dissolved in 0.1M HCL to 16.6 mg/ml, followed by diluting to 240 μg/ml, using 50% DMSO. […] TEG 5000 (rapid TEG test) and ROTEM (ex-tem test) were used to measure anticoagulation and the corresponding reactive time (R) and coagulation time (CT) were recorded.
(§2) Methods: Dabigatran was initially dissolved in 0.1 M HCL, followed by diluting 1:1 with DMSO/H2O to prepare four stock solutions: […]. […] Blood clotting was monitored for 120 minutes. […]
Each of the dabibatran-containing blood sample described above was examined for clotting time R measured by TEG in the manner described above.

[4] = tested on: coagulation of human blood; test: Chandler Loop System, clot formation in circulating blood; type: biochemical; settings: Idarucizumab added after 2 hours of circulation; immediate clotting of the blood in the loop
Experimental: as §1, §2

Row | Molecule | plasma levels of Dabigatran during the experimental procedure (Mass Spectrometry) [1] | normal concentrations found in patients [2] | reversal of the anticoagulation effect of Dabigatran ([3]; 125 μg/ml Idarucizumab) | Idarucizumab concentration required to reverse the highest concentrations of Dabigatran ([3]; highest Dabigatran concentrations) | reversal of the anticoagulation action of Dabigatran in the Chandler loop [4]
1 | [H]/N=C(/N)c1ccc(NCc2nc3cc(C(=O)N(CCC(=O)O)c4ccccn4)ccc3n2C)cc1 [Dabigatran] | remain stable | 180 ng/mL |  |  | 
2 | B1 |  |  | successfully reversed | 2-4 times normal plasma concentrations | effectively reversed
